Assay [1] deals with T1, 重组人uPAR蛋白 (recombinant human uPAR protein, uPAR-ECD) (human, UniProt Q03405 23-303, limits assumed).
T1 construct: extracellular domain; Bought reagent
Put plainly: BLI (Fortebio), antibody captured on anti-human IgG Fc sensor, uPAR-ECD at 0.25-1 μM. (In general: Biolayer interferometry detects binding as a change in optical thickness at a sensor tip.)

In assay [2] the target is 人尿激酶型纤溶酶原激活物受体 (human uPAR) on SW480 cells (human) (UniProt Q03405). Description: flow cytometry on SW480 cells, antibody at 5 μg/ml, FITC goat anti-human IgG. Background: Flow cytometry measures light scatter and fluorescence of single cells or particles in a stream.

This note sets out measurements from patent CN106432498A (UNIV ANHUI, dated 2017).

As usually defined, the Kd is the equilibrium constant for the complex coming apart. By koff is commonly meant the rate constant with which the complex falls apart. As a reminder, the kon is the second-order rate constant of association.

T1 sequence (Q03405 23-303 limits assumed): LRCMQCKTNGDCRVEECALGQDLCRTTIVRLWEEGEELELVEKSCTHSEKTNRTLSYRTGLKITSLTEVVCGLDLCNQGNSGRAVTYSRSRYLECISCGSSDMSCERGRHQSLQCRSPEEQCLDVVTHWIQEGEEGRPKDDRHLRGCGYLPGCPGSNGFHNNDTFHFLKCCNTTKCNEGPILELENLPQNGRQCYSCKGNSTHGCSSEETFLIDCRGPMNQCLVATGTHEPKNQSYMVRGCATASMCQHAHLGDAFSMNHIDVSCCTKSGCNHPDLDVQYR

B1: ATN615抗体 (monoclonal antibody targeting uPAR) (antibody, V domains shown)
VH: GVKLQQSGPEVVKPGASVKISCKASGYSFTNFYIHWVKQRPGQGLEWIGWIFHGSDNTEYNEKFKDKATLTADTSSSTAYMQLSSLTSEDSAVYFCARWGPHWYFDVWGQGTTVTVSS
VL: DIVLTQSPDITAASLGQKVTITCSASSSVSYMHWYQQKSGTSPKPWIFEISKLASGVPARFSGSGSGTSYSLTISSMEAEDAAIYYCQQWNYPFTFGGGTKLEIKR
notes: Made in the same way as H2BL2 (293F cells, protein A); also called ATN615溶液
With B1, in assay [1], the Kd came out at 7.45 nM, the koff came to 0.000576 s⁻¹ and the kon is 77300 M⁻¹ s⁻¹.

B2: H2BL2抗体 (humanized anti-uPAR antibody H2BL2) (antibody, human IgG1, kappa, V domains shown)
VH: EVQLVQSGAEVKKPGSSVKVSCKASGYTFTDYYIHWVRQAPGQGLEWIGWIFHGSDNTEYNEKFKSKATITADESTSTAYMELSSLRSEDTAVFYCARWGPHWYFDAWGRGTLVTVSS
VL: DIQMTQSPSTLSASVGDRVTITCRASSSVSYIHWYQQKPGRAPKPLMYEASSRATGVPSRFSGSGSGTEYTLTISSLQSDDFATYYCQQWNYPFTFGQGTKLEIKR
notes: also called H2BL2溶液
As to B2, in assay [2], the 平均荧光强度 turned out to be 4.44 and the 阳性率 worked out at 99.6%. Besides, in assay [1], the Kd amounted to 6.32 nM, the koff amounted to 0.000454 s⁻¹ and the kon worked out at 71800 M⁻¹ s⁻¹.
